The record followed here is publication PMC12808597, “Spatially diffuse cAMP signalling with oppositely biased GLP-1 receptor agonists in β-cells despite differences in receptor localisation” (Molecular Metabolism, 2025).

In assay [1] the target is mouse glucagon-like peptide-1 receptor, untagged (mouse) (UniProt O35659). Put plainly: imaging of fluorescent ligand bound to cells; washout: TMR-agonist detected at 60 min in AD293 cells transiently expressing untagged GLP-1R, with or without 20 uM exendin(9-39) applied 10 min after agonist.
Assay [2] concerns the target GLP-1R endogenous in wild-type mouse pancreatic islets (mouse (endogenous in C57Bl/6J islets)) (UniProt O35659). The experiment in a line: imaging of fluorescent ligand in intact islets; wild-type mouse islets, 1 nM TMR-agonist, continuous 60 min or 10 min then exendin(9-39) washout.
Assay [3] deals with human glucagon-like peptide-1 receptor, untagged (human) (UniProt P43220). The experiment in a line: imaging of fluorescent ligand bound to cells; Cy5- or TMR-agonist over a concentration range, 30 min stimulation; AD293 cells expressing untagged hGLP-1R or mGLP-1R, or wild-type INS-1 832/3 cells (non-specific binding from INS-1 832/3 Glp1r-/- cells subtracted); 'functional affinities'.

The target of assay [4] is mouse glucagon-like peptide-1 receptor, untagged (mouse) (UniProt O35659). Described as above.

Sequence of mouse glucagon-like peptide-1 receptor, untagged (mouse) (O35659 22-463): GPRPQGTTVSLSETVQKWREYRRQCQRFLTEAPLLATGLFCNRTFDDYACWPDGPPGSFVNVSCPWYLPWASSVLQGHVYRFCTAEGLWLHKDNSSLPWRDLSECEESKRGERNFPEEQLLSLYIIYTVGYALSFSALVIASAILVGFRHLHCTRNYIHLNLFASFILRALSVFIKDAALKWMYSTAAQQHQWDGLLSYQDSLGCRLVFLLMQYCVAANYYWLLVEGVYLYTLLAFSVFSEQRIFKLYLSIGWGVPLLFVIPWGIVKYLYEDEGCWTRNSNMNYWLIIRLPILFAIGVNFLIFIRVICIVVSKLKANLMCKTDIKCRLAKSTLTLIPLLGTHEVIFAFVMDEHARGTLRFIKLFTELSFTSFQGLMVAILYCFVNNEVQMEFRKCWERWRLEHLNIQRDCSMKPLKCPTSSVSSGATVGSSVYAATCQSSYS
Sequence of human glucagon-like peptide-1 receptor, untagged (human) (P43220 24-463): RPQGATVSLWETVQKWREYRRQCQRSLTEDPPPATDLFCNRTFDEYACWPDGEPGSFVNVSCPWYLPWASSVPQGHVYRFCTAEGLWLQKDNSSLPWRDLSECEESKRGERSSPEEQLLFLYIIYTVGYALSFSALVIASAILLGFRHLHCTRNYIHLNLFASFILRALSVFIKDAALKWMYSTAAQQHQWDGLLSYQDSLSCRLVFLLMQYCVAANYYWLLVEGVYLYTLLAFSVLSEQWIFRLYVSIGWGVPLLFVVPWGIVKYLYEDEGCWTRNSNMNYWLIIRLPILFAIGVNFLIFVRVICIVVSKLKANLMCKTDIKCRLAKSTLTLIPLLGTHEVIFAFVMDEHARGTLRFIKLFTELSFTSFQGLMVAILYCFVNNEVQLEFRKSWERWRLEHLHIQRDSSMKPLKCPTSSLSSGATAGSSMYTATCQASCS
Sequence of GLP-1R endogenous in wild-type mouse pancreatic islets (mouse (endogenous in C57Bl/6J islets)) (O35659 22-463): as the sequence (O35659 22-463) above

Turning to exendin(9–39) (peptide), the percent reduction of total ExD3-TMR binding by washout with 20 uM exendin(9-39) in assay [1] was 50%.

Take “exendin-asp3 tetramethylrhodamine conjugate (peptide)”: in assay [2], the total ligand bound after washout relative to continuously applied ExF1 turned out to be 2 fold. Besides, the fold lower affinity than the Cy5 equivalent in assay [3] worked out at 5 fold; in assay [4], 3 fold.

As to “exendin-phe1 tetramethylrhodamine conjugate (peptide)”, the figures for the fold lower affinity than the Cy5 equivalent in assay [3] and in assay [4] were 5 fold and 3 fold, respectively.
